Earlier results on 3 substances are cited in paper PMC12250766.

Data set [1] concerns the target PSGL-1 (Homo sapiens) (UniProt Q14242).
Data set [2] shares this target. This is another data set of the same source.
In data set [3] the target is PSGL-1 model glycosulfopeptide (Homo sapiens) (UniProt Q14242).
The target in data set [4] is PSGL-1 model glycopeptide (Homo sapiens) (UniProt Q14242).
Data set [5] deals with PSGL-1 model glycosulfopeptide (Homo sapiens) (UniProt Q14242). This is another data set of the same source.

Read-outs that look alike come from different tables or passages of the source.

Turning to E-selectin (from UniProt P16581), the Kd (as a rule, the equilibrium constant for the complex coming apart) in the data set with PSGL-1 (Homo sapiens) [1] was 15 µM.

Consider L-selectin (from UniProt P14151), for which the Kd in the data set with PSGL-1 (Homo sapiens) [2] was 5 µM.

For the substance P-selectin (from UniProt P16109), the Kd in data set [3] is 0.65 µM; in data set [4], 25 µM; in data set [5], 6 µM.
